Results reported in the nanobody polyreactivity screen of Harvey et al. (2022).

test: yeast display, Sf9 membrane polyspecificity reagent, FACS + sequencing; frameworks hold sequencing errors
Outline: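 Nanobodies came from a synthetic yeast display library in Saccharomyces cerevisiae BJ5465, induced with galactose for 36–48 hours and stained for 1 hour at 4 °C with 10% biotinylated, detergent-solubilized Sf9 membrane reagent. Cells were enriched on streptavidin microbeads and then FACS-sorted, with low and high (top ~1%) gates set on anti-HA fluorescence for expression and streptavidin fluorescence for reagent binding. Each polyreactivity label reflects the gate a clone came from. Genes were amplified by colony PCR, sequenced by MiSeq 2 × 250 and filtered by CDR length.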

| Sequence | polyreactivity (PSR sort gate) |
| --- | --- |
| QVQLVESGGGLVQAGGSLRLSCAASGLIFAINAMGWYRQAPGKEREMVAAIRWSGDSTYADSVKGRFTISRDNAKNTVYLQMNSLKREDTAVYYCAADDLLDYDYWGQGTQVTVSS | low polyreactivity |
| QVQLVESGGGLVQAGGSLRLSCAASGLIFAYAMGWYRQAPGTERELVAAISGRDGSTYYADSVKGRFTISRDNAKNTVYLQMNSLKPEDTAVYYCAKRISYLPVEMDYWGQGTQVTVSS | low polyreactivity |
| QVQLVESGGGLVQAGGSLRLSCAASGLIFDCYARGWYRQAPGKERELVAAITYTGGSTYYADSVKGRFTISRDNAKNTDYIQMNSLKPEDTAVYYCAARRQRDRYGYWGQGTQVTVSS | high polyreactivity |
| QVQLVESGGGLVQAGGSLRLSCAASGLIFDSYAMGWYRQAPGKERELVAAITYTGGSTYYADSVKGRFTISRDNAKNTVYLQMNSLKPEDTAVYYCAARRQRDRYGYWGQGTQVTVSS | high polyreactivity |
| QVQLVESGGGLVQAGGSLRLSCAASGLIFFFYAMGWYRQAPGKERELVAAISSGGTTNYADSVKGRFTISRDNAKNTVYLQMNSLKPEDTAVYYCAARPSTYWSLGQHYGISGYWGQGTQVTVSS | low polyreactivity |
| QVQLVESGGGLVQAGGSLRLSCAASGLIFFFYAMGWYRQAPGKERELVASISGGGITYYADSVKGRFTISRDNAKNTVYLQMNSLKPEDTAVIKNDYWGQGTQVTVSS | low polyreactivity |
| QVQLVESGGGLVQAGGSLRLSCAASGLIFGAYTMGWYRQAPGKERELVASITTSGDSTYYADSVKGRFTISRDNAKNTVYLQMNSLKPEDTAVYYCAAESTVGTDLGGDSWGQGTQVTVSS | high polyreactivity |
| QVQLVESGGGLVQAGGSLRLSCAASGLIFGEYDMGWYRQAPGKERELVAAISDRGTSTYYADSVKGRFTISRDNAKNTVYLQMNSLKPEDTAVYYCATDRNYYYSWEYDYWGQGTQVTVSS | low polyreactivity |
| QVQLVESGGGLVQAGGSLRLSCAASGLIFGGNAMGWYRQAPGKERELVAAISRSTGRTYYADSVKGRFTISRDNAKNTVYLQMNSLKPEDTAVYYCNAVGYAFPSYDSWGQGTQVTVSS | high polyreactivity |
| QVQLVESGGGLVQAGGSLRLSCAASGLIFGRYAMGWYRQAPGKERELVAAITGRGGSTYYADSVKGRFTISRDNAKNTVYLQMNSLKPEDTAVYYCNKVYNPKSYIQYDYWGQGTQVTVSS | high polyreactivity |
| QVQLVESGGGLVQAGGSLRLSCAASGLIFGSNAMGWYRQAPGKERELVAGISGSGEHYVLRRSVKGRVTISRDNAKNTVYVPMNSLKPEDTAVYYCATYSQSSKGPAGYDYWGQGTHVTVSS | high polyreactivity |
| QVQLVESGGGLVQAGGSLRLSCAASGLIFGTNAMGWYRQAPGKERELVAAISGSGGRTYYADSVKGRFTISRDNAKNTVYLQMNSLKPEDTAVYYCAADYVYGTRDDYWGQGTQVTVSS | high polyreactivity |
| QVQLVESGGGLVQAGGSLRLSCAASGLIFGWYAMGWSRQAPGKEREFVASIRYGGGSTYYADSVKGRFTISRDYAKNTVYLQMNSLKPEDTAVYYCAADRYPWHLQYVEYDSDYWGQGTQVTVSS | low polyreactivity |
| QVQLVESGGGLVQAGGSLRLSCAASGLIFGYNAMGWYRQAPGKESELVAAISSSGGSTSYADSVKGRFTISRDNAKNTVYLQMNSLKPEDTAVYYCAAKPGRYADYDYNSWGQGTQVTVSS | low polyreactivity |
| QVQLVESGGGLVQAGGSLRLSCAASGLIFGYYAMGWYRQAPGKERELVARITRRGGSTYYADSVKGRFTISRDNAKNTVYLQMNSLKPEDTAVYDCAADWYSPRISREYDYWGQGTQVTVSS | high polyreactivity |
| QVQLVESGGGLVQAGGSLRLSCAASGLIFIVNAMGWYRQAPGKDRELVAAISSGGSTNYADSVKGRFTISRDNAKNTVYLQMNSLKPEDTAVYYCNAGRGPITQNVGSLAYRSDYWGQGTQVTVSS | low polyreactivity |
| QVQLVESGGGLVQAGGSLRLSCAASGLIFKFYAMGGYRQAAGKERELVARISSSGGSTYYADSVKGRFTISRDNAKNTVYLQMNSLKPEDTAVYYCAAGAYYVERYARSSIFSYYYWGQGTQVTVSS | high polyreactivity |
